How the values were obtained:
[1] = target: IL-4Rα (Homo sapiens) (UniProt P24394); settings: cited from earlier work
[2] = target: hIL-4Rα–hIL-13Rα1 complex (human type II IL-4 receptor) (human) (UniProt P78552)
Sequence of UniProt P78552 (P78552 22-343, chain 1 of 2): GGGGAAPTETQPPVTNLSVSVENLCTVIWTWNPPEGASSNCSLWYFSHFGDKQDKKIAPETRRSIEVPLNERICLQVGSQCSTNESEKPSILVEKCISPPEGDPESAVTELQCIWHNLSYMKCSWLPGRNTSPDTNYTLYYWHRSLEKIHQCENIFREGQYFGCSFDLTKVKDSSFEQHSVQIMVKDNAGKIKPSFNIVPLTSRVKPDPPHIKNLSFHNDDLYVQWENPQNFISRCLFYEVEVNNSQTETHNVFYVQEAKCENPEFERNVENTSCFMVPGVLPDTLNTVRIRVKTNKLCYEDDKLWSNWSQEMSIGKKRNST
Sequence of UniProt P78552 (P24394 26-232, chain 2 of 2, further chain): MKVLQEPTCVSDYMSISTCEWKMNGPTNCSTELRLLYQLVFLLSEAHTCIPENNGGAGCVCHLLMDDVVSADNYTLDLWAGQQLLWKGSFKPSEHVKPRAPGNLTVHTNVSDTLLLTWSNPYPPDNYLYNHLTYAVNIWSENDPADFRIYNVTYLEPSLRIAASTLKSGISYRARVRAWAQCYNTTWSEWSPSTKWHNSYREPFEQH

Sequence of UniProt P24394 (P24394 26-232): as the sequence (P24394 26-232, chain 2 of 2, further chain) above

Row | Substance | Kd [1] | Kd [2]
1 | IL-4 (from UniProt P05112) | < 0.001 µM | –
2 | human interleukin-4 (hIL-4) (from UniProt P05112 25-153) (ligand) | – | 0.101 µM
